Assay results: patent US20230140868A1, “COMPOSITIONS AND METHODS FOR TREATING CANCER” (Alpha Beta Holdings, LLC, priority 2020, published 2023)

How the values were obtained:
[1] = test system: αvβ3-expressing human lung cancer cells; assay: In vitro ADCC, primary human monocyte-derived macrophages as effector cells (FIG. 10A); assay type: cell-based; settings: increasing E:T
Source text: (A) In vitro ADCC for primary human monocyte-derived macrophages as effector cells. (B). In vitro ADCC for human NK cells as effector cells. Graphs show effect of increasing effector-to-target ratio (E:T) on death of αvβ3-expressing human lung cancer cells.
This distinction could produce a therapeutic advantage by achieving matching between the antigen (integrin αvβ3) and the types of effector cells that are particularly enriched in αvβ3-expressing tumors, such as macrophages.

tumor cells [2] = assay: In vitro ADCC with mouse bone marrow derived macrophages (LM609); assay type: cell-based; settings: effector: BMDM isolated from healthy mice
Procedure: Mouse bone marrow-derived macrophages (BMDMs) were aseptically harvested from euthanized 8-10 week-old female C57BL/6 mice by flushing leg bones with RPMI, filtering through 70 μm cell strainers, and incubating in Red Blood Cell Lysing Buffer Hybri-Max™ (Sigma, R7757). Cells were incubated with mouse M-CSF (Peprotech, 315-02) for 7 days before ADCC assays.
(§1) We used the isolated macrophages as effector cells in an antibody-dependent cellular-cytotoxicity (ADCC) assay. […] The ratio of dead target cells (PI-positive) to the total target cell population (CFSE-positive) was calculated as described (Bracher, 2007).

[3] = test system: HCC827-R18 erlotinib-resistant tumor cells; assay: Re-sensitization of erlotinib-resistant HCC827-R18 xenografts (FIG. 1); assay type: in vivo, nu/nu mice; settings: LM609 i.p., 10 mg/kg, twice/week with erlotinib 6.25 mg/kg vs erlotinib alone
Procedure: HCC827-R18 and PC9-R4L erlotinib-resistant tumor cells generated as reported in Wettersten et al., Cancer Res. 79:5048 (2019), incorporated by reference herein in its entirety, were injected to form subcutaneous flank tumors in nu/nu recipient mice. […] Tumor dimensions were measured biweekly and volume calculated as […].
To generate erlotinib-resistant tumors […], HCC827 or PC9 human lung cancer cells (5×10^6 tumor cells in 100 μl of PBS) were subcutaneously injected to the right flank of female nu/nu mice (Charles River, 088, 8-10 weeks old) and tumors were measured with calipers twice per week. Animals with a tumor volume of 100-200 mm^3 were randomly assigned into groups treated with combinations of Captisol (oral, six times/week) or erlotinib (oral, 6.25 mg/kg, six times/week). For each of the individual tumors shown in Figure S3 of Wettersten et al., Cancer Res. 79:5048 (2019)}, vehicle-treated erlotinib sensitive (HCC827-P and PC9-P) and erlotinib-resistant (HCC827-R18 and PC9-R4L) cells were isolated. A gain of αvβ3 expression on the cell surface of the erlotinib-resistant tumor cells was confirmed by flow cytometry.

tumor cells [4] = assay: In vitro ADCC with TAMs isolated from mouse Lewis lung carcinoma tumors; assay type: cell-based; settings: effector: TAMs from LLC tumors grown in C57BL6 or athymic nude mice
Procedure: TAMs were isolated from tumor tissues as described (Kaneda, 2016). Tumors were dissociated in HBSS containing collagenase IV (Sigma, C5138), hyaluronidase (Sigma, H2654), dispase 11 (Roche, 04942078001), and DNase IV (Millipore, D5025) at 37° C. for 15 minutes. Cell suspensions were filtered through 70 μm cell strainers and washed with PBS. Single cell suspensions (10^6 cells/100 μl in 5% BSA in PBS) were incubated with Mouse BD Fc Block™ (BD Biosciences, 553142, 1:50) for 10 minutes at 4° C. and fluorescently labeled antibodies, CD11b (eBioscience, 17-0112-81, 1:100), and Ly-6G (eBioscience, 25-5931-81, 1:100), for one hour at 4° C. TAMs (CD11b-positive, Ly-6G-negative) were sorted.
as §1

[5] = test system: αvβ3-expressing human pancreatic xenograft tumors; assay: αvβ3-expressing human pancreatic xenograft with or without macrophage depletion; assay type: in vivo, nude mice
Source text: Successful depletion of macrophages by clodronate treatment was confirmed by staining tumor sections for the mouse macrophage marker F4/80.

integrin αvβ3 = integrin αvβ3 (Homo sapiens, UniProt P05106+P06756); settings: human cells; Cheresh, 1987; cited from earlier work
integrin αvβ3, sequence (P06756 31-889 limits assumed): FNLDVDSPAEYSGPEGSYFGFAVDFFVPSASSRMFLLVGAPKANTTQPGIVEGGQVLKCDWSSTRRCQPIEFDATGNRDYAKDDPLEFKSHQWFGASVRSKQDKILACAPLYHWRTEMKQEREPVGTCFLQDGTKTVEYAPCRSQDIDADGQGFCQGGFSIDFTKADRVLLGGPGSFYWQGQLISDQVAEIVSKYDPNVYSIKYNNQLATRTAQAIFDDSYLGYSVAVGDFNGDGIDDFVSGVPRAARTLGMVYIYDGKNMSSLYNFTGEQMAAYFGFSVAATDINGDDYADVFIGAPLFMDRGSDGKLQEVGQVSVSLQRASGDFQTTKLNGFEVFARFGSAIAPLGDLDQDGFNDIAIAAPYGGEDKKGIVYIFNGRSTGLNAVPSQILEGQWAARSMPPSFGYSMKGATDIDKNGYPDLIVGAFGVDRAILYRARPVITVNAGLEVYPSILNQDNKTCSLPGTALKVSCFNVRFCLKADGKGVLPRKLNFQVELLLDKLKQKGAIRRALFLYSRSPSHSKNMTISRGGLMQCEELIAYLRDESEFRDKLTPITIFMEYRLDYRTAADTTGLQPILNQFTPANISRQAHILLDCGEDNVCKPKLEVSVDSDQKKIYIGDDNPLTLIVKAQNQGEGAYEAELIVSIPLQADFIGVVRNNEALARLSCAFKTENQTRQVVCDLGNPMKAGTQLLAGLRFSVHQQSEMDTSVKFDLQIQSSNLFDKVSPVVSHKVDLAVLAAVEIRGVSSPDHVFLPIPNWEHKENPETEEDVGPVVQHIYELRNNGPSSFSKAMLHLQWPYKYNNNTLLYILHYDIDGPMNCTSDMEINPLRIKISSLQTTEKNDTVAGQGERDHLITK
integrin αvβ3, sequence (P06756 891-1048 limits assumed): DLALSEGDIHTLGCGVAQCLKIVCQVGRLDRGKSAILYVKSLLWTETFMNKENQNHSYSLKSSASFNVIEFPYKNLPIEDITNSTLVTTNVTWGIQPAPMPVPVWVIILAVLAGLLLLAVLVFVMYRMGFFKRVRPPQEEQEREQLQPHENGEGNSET
integrin αvβ3, sequence (P05106 27-788): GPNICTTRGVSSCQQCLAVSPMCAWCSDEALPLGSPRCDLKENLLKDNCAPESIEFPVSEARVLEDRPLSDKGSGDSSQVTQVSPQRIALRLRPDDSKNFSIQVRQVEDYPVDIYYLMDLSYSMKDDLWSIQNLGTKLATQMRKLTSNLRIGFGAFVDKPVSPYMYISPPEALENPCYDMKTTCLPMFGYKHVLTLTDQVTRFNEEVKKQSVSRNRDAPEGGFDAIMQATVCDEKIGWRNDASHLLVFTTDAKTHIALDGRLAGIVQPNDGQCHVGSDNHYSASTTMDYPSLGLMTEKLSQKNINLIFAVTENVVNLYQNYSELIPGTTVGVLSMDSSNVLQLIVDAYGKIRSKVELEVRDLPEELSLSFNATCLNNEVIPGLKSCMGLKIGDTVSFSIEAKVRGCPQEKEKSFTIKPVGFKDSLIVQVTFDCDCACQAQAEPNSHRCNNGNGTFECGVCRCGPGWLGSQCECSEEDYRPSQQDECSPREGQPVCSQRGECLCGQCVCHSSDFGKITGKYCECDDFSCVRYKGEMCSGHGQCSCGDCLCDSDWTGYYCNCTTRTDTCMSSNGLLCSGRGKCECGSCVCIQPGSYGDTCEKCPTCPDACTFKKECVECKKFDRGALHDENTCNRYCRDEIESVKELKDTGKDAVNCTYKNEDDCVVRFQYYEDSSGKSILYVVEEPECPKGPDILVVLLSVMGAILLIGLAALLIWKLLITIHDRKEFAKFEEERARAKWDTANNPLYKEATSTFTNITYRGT

[6] = test system: αvβ3-expressing tumor cell lines; assay: Macrophage-mediated killing: Fc dependence, ADCC vs ADCP vs direct killing; assay type: cell-based
Procedure: as §1
These findings were reported in FIGS. 3C-3D of Wettersten et al., Cancer Res. 79:5048 (2019).
Monoclonal antibodies can direct macrophages to induce tumor cell killing through two primary mechanisms, processes known as antibody-dependent cellular phagocytosis (ADCP) and antibody-dependent cellular cytotoxicity (ADCC). […] The lack of an ADCP response is consistent with high tumor cell expression of CD47, the “don't eat me” signal (Chao, 2012) that tumor cells often exploit to evade phagocytosis.

[7] = additional αvβ3-expressing tumor cell lines: lung, pancreas, brain, kidney cancer

B1: LM609: mouse monoclonal IgG1K antibody that recognizes human integrin αvβ3; SEQ ID NO:11 and 12 (antibody)
heavy: MNFGLRLIFLVLTLKGVKCEVQLVESGGGLVKPGGSLKLSCAASGFAFSSYDMSWVRQIPEKRLEWVAKVSSGGGSTYYLDTVQGRFTISRDNAKNTLYLQMSSLNSEDTAMYYCARHNYGSFAYWGQGTLVTVSAAKTTPPSVYPLAPGSAAQTNSMVTLGCLVKGYFPEPVTVTWNSGSLSSGVHTFPAVLQSDLYTLSSSVTVPSSTWPSETVTCNVAHPASSTKVDKKIVPRDCGCKPCICTVPEVSSVFIFPPKPKDVLTITLTPKVTCVVVDISKDDPEVQFSWFVDDVEVHTAQTQPREEQFNSTFRSVSELPIMHQDWLNGKEFKCRVNSAAFPAPIEKTISKTKGRPKAPQVYTIPPPKEQMAKDKVSLTCMITDFFPEDITVEWQWNGQPAENYKNTQPIMDTDGSYFVYSKLNVQKSNWEAGNTFTCSVLHEGLHNHHTEKSLSHSPGK
light: MVFTPQILGLMLFWISASRGDIVLTQSPATLSVTPGDSVSLSCRASQSISNHLHWYQQKSHESPRLLIKYASQSISGIPSRFSGSGSGTDFTLSINSVETEDFGMYFCQQSNSWPHTFGGGTKLEIKRADAAPTVSIFPPSSEQLTSGGASVVCFLNNFYPKDINVKWKIDGSERQNGVLNSWTDQDSKDSTYSMSSTLTLTKDEYERHNSYTCEATHKTSTSPIVKSFNRNEC
modifications: mAb LM609-mIgG1-kappa Heavy chain; mAb LM609-mIgG1-kappa Light chain
- ADCC with human macrophages as effector cells [1]: able to induce ADCC
- ADCC (tumor cell killing) (tumor cells [2]): could also kill tumor cells
- re-sensitization of resistant tumors to erlotinib (tumor volume) [3]: able to re-sensitize resistant tumors to the growth inhibitory effects of erlotinib
- ADCC activity (tumor cells [4]): robust ADCC activity
- anti-tumor effect after macrophage depletion ([5]; macrophage depletion using clodronate liposomes): completely blocked
- sensitivity of xenograft tumors to LM609 ([5]; reported in FIG. 2A of Wettersten et al.): highly sensitive
- recognition of integrin αvβ3 (integrin αvβ3): recognizes integrin αvβ3 on human
- ADCP ([6]; FIG. 3F of Wettersten et al.): not ADCP
- direct killing ([6]; FIG. 3F of Wettersten et al.): not ADCP or direct killing
- ADCP [6, 7]: not ADCP
- direct killing [6, 7]: not ADCP or direct killing
- macrophage-mediated ADCC [6, 7]: also observed
- macrophage-mediated killing ([6]; in the presence of an antibody blocking the Fc receptors CD16, CD32, and CD64): no macrophage-mediated killing
- macrophage ADCC ([6]; required integrin β3 expression, FIG. 3F of Wettersten et al.): induced macrophage ADCC
